Target: Salmonella SJW1660 flagellin capable of forming L-type straight filaments (Salmonella (S. typhimurium)) (UniProt P06179)
Experiment: co-sedimentation; monomers of SJW1660 flagellin and FliC(XynA) mixed at 1:1 to 1:5 (w/w) in 20 mM Tris-HCl, 150 mM NaCl (pH 7.8), polymerized with ammonium sulfate (0.4-0.6 M), 2 days at room temperature; centrifuged, pellet dissolved in buffer without AS, SDS-PAGE with densitometry; filaments also seen by dark-field microscopy and AFM

Question: For “FliC(XynA) fusion protein (flagellin-xylanase A chimera) (from UniProt P18429 29-213)”, which band intensity of FliC(XynA) in the copolymer pellet, 1:1 mixing ratio (FliC band 49.3) is on record?
Answer: 49.6

Question: And the band intensity of FliC(XynA) in the copolymer pellet, 1:2 mixing ratio (FliC band 50.7)?
Answer: 34.2
